Test results from patent US20260201038A1 (CELLABMED, published 2026).

Tests used:
[1] = target: T1, B7-H2 (UniProt O75144 19-256, limits assumed); test: indirect ELISA, B7-H2 coated at 1 ug/mL, absorbance at 450 nm
T1 sequence (looked up): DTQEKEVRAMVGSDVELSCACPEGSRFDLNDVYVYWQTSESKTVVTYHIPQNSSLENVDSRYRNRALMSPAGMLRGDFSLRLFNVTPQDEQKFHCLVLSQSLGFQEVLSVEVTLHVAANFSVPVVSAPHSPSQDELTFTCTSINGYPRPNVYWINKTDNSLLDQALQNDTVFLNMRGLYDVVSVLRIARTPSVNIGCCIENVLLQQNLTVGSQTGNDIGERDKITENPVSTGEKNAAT
Protocol: [The procedure below names another target; the source lists this target under the same test.] (§1) The binding ability of 2D IgG prepared in Example 2 for recombinant B7-H3 protein was investigated by indirect ELISA. For indirect ELISA, recombinant human 4lg B7-H3, recombinant human 2lg B7-H3 and recombinant mouse B7-H3 were diluted respectively to 1 μg/mL in 50 μL of PBS and adsorbed overnight onto a 96-well immunoplate (Corning, USA) by storing at 4° C. After reaction with a buffer solution containing 3% bovine serum albumin at room temperature for 1 hour, followed by washing 3 times with a buffer solution containing 0.5% Tween 20, each well was treated with 50 μL of the antibodies diluted serially (0.0001, 0.0003, 0.001, 0.003, 0.01, 0.03, 0.1, 0.3, 1, 3 and 10 nM). For antigen-antibody binding, the mixture was reacted at room temperature for 2 hours, and then washed 3 times with a buffer solution containing 0.5% Tween 20. After treating each well with 50 μL of anti-human immunoglobulin Fc-HRP antibodies (Jackson Immunoresearch, USA) diluted to 1:3,000, reaction was conducted at room temperature for 1 hour. […] As a result of measuring absorbance at 450 nm using a spectrophotometer (Biotek, USA), it was confirmed that 2D IgG binds to B7-H3, and the binding ability was in the order of 4lg B7-H3, 2lg B7-H3 and mouse B7-H3 (FIG. 2a). […]

[2] = target: T2, …; test: peptide microarray, 15-mers of human 4Ig B7-H3; panel Ig-like-V type 1
T2 sequence (peptide): EVQVPEDPVVALVGT

[3] = target: B7-H3 on human cancer cells (human) (UniProt Q5ZPR3); test: flow cytometry on A549 lung cancer cells; control (secondary antibody only) < 5%
[4] = target: mouse B7-H3 expressed on Raji cells (mouse) (UniProt Q8VE98); test: flow cytometry on Raji cells expressing mouse B7-H3; the vector control Raji cells show < 10%
[5] = target: T3, B7-1 (UniProt P33681 35-242); test: indirect ELISA, B7-1 coated at 1 ug/mL, absorbance at 450 nm
T3 sequence (looked up): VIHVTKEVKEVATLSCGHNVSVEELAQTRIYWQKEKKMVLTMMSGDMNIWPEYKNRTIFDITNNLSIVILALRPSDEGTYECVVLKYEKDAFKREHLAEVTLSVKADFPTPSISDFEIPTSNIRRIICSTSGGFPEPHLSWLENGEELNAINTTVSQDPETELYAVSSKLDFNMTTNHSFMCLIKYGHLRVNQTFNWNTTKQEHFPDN
Protocol: [The procedure below names another target; the source lists this target under the same test.] as §1

[6] = target: B7-H3 on human cancer cells (human) (UniProt Q5ZPR3); test: flow cytometry on HCT116 colorectal cancer cells; control (secondary antibody only) < 25%
[7] = target: B7-H3 on human cancer cells (human) (UniProt Q5ZPR3); test: flow cytometry on A2780 ovarian cancer cells; control (secondary antibody only) < 5%
[8] = target: B7-H3 on human cancer cells (human) (UniProt Q5ZPR3); test: flow cytometry on HepG2 liver cancer cells; control (secondary antibody only) < 10%
[9] = target: B7-H3 on human cancer cells (human) (UniProt Q5ZPR3); test: flow cytometry on U87 brain tumor cells; control (secondary antibody only) < 10%
[10] = target: B7-H3 on human cancer cells (human) (UniProt Q5ZPR3); test: flow cytometry on Panc-1 pancreatic cancer cells; control (secondary antibody only) < 15%
[11] = target: B7-H3 on human cancer cells (human) (UniProt Q5ZPR3); test: flow cytometry on PC-3 prostate cancer cells; control (secondary antibody only) < 20%
[12] = target: B7-H3 on human cancer cells (human) (UniProt Q5ZPR3); test: flow cytometry on SK-BR-3 breast cancer cells; control (secondary antibody only) < 5%
[13] = target: T4, B7-H4 (UniProt Q7Z7D3 25-258, limits assumed); test: indirect ELISA, B7-H4 coated at 1 ug/mL, absorbance at 450 nm
T4 sequence (looked up): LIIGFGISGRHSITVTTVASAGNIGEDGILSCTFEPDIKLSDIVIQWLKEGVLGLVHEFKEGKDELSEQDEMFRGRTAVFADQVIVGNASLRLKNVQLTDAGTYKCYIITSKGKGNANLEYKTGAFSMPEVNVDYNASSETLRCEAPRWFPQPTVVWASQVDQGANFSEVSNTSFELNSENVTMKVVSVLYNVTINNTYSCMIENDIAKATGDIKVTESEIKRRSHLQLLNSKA
Protocol: [The procedure below names another target; the source lists this target under the same test.] as §1

[14] = target: B7-H3 on human cancer cells (human) (UniProt Q5ZPR3); test: flow cytometry on MDA-MB-231 breast cancer cells; control (secondary antibody only) < 5%
[15] = target: B7-H3 on human cancer cells (human) (UniProt Q5ZPR3); test: flow cytometry on A172 brain tumor cells; control (secondary antibody only) < 25%

Chain of mouse B7-H3 expressed on Raji cells (mouse) (Q8VE98 other isoform, or with tags, fused parts or gaps, form in doubt): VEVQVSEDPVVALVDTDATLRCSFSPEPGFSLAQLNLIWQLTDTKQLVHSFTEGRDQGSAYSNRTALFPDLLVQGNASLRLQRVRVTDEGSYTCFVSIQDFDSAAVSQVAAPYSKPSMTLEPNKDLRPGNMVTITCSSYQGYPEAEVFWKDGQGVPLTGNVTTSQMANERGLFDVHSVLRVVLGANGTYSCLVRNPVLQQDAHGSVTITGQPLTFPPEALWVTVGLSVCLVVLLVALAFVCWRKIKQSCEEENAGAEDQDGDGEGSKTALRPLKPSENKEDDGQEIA

B1: G2D IgG (antibody, V domains shown)
VH: QVQLVESGGGLVQPGGSLRLSCSASGFDFSSYPMVWVRQAPGKGLEYVSSINSGGSWTGYGAAVKGRATISRDNSKNTLYLQMNSLRAEDTATYYCARAYGAATIDAWGQGTTVTVSS
VL: SYELTQPPSVSVSPGQTARITCSGGSIGYGWYQQKAPGQAPVTVIYYNDRRPSGIPERFSGSKSGTTNTLTISGVQAEDEADYYCGSADSSSTYTGIFGGGTKLTVL
notes: The back-substitutions (L46T, S66K, V71N in VL); also called humanized 2D; G2D antibody
binding result [1]: no binding (tested: 10 nM)
fluorescence intensity of the peptide spot [2]: 16
% of cells in the positive gate [3]: > 95%
% of cells in the positive gate (P5) [4]: > 95%
binding result [5]: no binding (tested: 10 nM)
% of cells in the positive gate [6]: > 95%
% of cells in the positive gate [7]: > 95%
% of cells in the positive gate [8]: > 95%
% of cells in the positive gate [9]: > 95%
% of cells in the positive gate [10]: > 95%
% of cells in the positive gate [11]: > 95%
% of cells in the positive gate [12]: > 35%
binding result [13]: no binding (tested: 10 nM)
% of cells in the positive gate [14]: > 95%
% of cells in the positive gate [15]: > 95%
